Experimental data: patent US20260034230A1 (Regeneron, published 2026)
One block for each binder: values may come before it.

How the values were obtained:
[1] = target: T1, REGN2431 (hmm.hTfRC): monomeric human Tfrc ectodomain (C89-F760) with N-terminal hexahistidine-myc-myc tag (human, UniProt P02786 89-760); experiment: SPR Biacore, IgG captured by anti-hFc, 25 C
T1 construct: also called hmm.hTfR(C89-F763); hTFR-mmh
Description: (§1) Biacore binding kinetics assays were conducted for the interaction of 32 anti-human TfR IgG1 monoclonal antibodies from CHO supernatants with TfR reagents at 25° C.
(§2) Equilibrium dissociation constants (KD) for the interaction of anti-TfR monoclonal antibodies with human and fascicularis monkey TfR ecto domain recombinant proteins were determined using a real-time surface plasmon resonance (SPR) based Biacore S200 biosensor. All binding studies were performed in 10 mM HEPES, 150 mM NaCl, 3 mM EDTA, and 0.05% v/v surfactant Tween-20, pH 7.4 (HBS-EP) running buffer at […]. The Biacore CM5 sensor surface was first derivatized by amine coupling with a monoclonal mouse anti-human Fc antibody (REGN2567) followed by a step to capture anti-TfR monoclonal antibodies in CHO conditioned media. […] The dissociation of TfR bound to anti-TfR monoclonal antibodies was monitored for 3 minutes in HBS-EP running buffer. At the end of each cycle, the anti-TfR monoclonal antibodies capture surface was regenerated using a 12-see injection of 20 mM H₃PO₄. The association rate (ka) and dissociation rate (kd) were determined by fitting the real-time binding sensorgrams to a 1:1 binding model with mass transport limitation using Scrubber 2.0c software. The dissociation equilibrium constant (KD) and dissociative half-life (t %) were calculated from the kinetic rate constants as: […]

[2] = target: T2, REGN2054 (mf TFRC ecto-mmh): monomeric monkey (cyno) Tfrc ectodomain (C89-F760) with C-terminal … (monkey (cyno, Macaca fascicularis), UniProt H9EXL1 89-760); experiment: SPR Biacore, IgG captured by anti-hFc, 25 C
T2 construct: range 89-760; also called mfTFR-mmh; mfTfR-mmh
T2 sequence (chain, as listed by the source): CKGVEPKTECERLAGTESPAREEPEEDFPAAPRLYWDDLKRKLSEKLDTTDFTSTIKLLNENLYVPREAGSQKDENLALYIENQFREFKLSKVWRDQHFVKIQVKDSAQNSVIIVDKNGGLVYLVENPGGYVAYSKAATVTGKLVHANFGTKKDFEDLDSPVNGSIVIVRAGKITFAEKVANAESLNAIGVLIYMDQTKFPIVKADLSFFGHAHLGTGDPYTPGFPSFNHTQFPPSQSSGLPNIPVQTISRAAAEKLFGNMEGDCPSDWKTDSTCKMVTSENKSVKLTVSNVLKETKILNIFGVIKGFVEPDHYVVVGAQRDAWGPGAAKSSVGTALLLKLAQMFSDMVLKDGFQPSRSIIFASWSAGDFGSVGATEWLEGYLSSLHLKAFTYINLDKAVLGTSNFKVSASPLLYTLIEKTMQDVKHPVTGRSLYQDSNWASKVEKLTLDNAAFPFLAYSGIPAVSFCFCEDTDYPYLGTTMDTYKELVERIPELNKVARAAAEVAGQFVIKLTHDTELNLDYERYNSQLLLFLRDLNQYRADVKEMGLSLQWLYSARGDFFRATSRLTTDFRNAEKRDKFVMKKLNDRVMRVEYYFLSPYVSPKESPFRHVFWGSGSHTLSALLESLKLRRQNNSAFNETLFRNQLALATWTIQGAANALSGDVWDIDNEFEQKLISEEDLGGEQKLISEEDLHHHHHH
Description: as §1, §2

T1 sequence (P02786 other isoform, or with tags, fused parts or gaps): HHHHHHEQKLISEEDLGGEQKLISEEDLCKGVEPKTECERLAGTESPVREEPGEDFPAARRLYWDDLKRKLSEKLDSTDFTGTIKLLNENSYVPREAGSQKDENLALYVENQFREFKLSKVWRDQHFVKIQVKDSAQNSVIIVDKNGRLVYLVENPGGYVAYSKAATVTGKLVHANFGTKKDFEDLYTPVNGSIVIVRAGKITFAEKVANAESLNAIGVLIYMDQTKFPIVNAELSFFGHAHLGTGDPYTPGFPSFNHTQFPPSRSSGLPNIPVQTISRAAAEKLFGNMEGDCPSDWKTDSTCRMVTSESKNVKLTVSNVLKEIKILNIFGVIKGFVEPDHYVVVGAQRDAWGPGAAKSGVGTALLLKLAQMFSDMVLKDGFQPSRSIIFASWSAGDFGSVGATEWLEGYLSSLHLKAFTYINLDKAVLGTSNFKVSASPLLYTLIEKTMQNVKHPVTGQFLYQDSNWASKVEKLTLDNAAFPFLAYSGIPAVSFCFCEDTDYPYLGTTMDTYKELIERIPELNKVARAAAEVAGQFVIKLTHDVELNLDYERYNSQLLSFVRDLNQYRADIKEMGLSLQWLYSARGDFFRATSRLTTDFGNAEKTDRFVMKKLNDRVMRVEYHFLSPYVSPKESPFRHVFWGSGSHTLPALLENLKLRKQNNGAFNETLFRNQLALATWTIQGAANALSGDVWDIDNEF

t1/2 [1]: 95 min | t1/2 [2]: 15.7 min
B1: 12844B anti-hTfR monoclonal antibody (bivalent IgG1) (antibody, V domains shown)
VH: EVQLVESGGSVVRPGGSLRLSCEASGFTFDDYGMSWVRQDPGKGLEWVSGINWNGDRTNYADSVKGRFIISRDNAKNSVYLQMNSLRAEDSALYHCARDQGLGVAATLDYWGQGTLVTVSS
VL: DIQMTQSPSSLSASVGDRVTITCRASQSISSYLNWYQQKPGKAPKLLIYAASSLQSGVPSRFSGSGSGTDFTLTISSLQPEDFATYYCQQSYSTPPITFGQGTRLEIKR
notes: hIgG1/kappa

t1/2 [1]: 67.6 min | t1/2 [2]: 34.7 min
B2: 12847B anti-hTfR monoclonal antibody (bivalent IgG1) (antibody, V domains shown)
VH: EVQLVESGGGLVQPGRSLRLSCAASGFTFDDYAMNWVRQAPGKGLEWVSGISWSSGSMDYADSVKGRFTISRDNAKNSLYLQMNSLRTEDTALYYCAKAREVGDYYGMDVWGQGTTVTVSS
VL: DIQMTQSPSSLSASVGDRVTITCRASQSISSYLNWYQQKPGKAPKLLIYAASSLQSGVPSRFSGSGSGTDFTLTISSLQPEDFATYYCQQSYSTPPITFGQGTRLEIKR
notes: hIgG1/kappa; also called H1H12847B; REGN17514

t1/2 [1]: 27.7 min | t1/2 [2]: 6.9 min
B3: 12835B anti-hTfR monoclonal antibody (bivalent IgG1) (antibody, V domains shown)
VH: EVQLVESGGGLIQPGGSLRLSCEASGFTFRNYEMNWVRQAPGKGLEWVSYISSSGNMKDYAESVKGRFTISRDNVKNSLQLQMNSLRVEDTAVYYCARDEFPYGMDVWGQGTTVTVSS
VL: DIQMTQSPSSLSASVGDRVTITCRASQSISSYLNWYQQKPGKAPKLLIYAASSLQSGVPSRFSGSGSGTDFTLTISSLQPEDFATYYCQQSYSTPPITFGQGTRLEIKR
notes: hIgG1/kappa; also called H1H12835B; REGN17509

t1/2 [1]: 276 min | t1/2 [2]: 17.7 min
B4: 12801B anti-hTfR monoclonal antibody (bivalent IgG1) (antibody, V domains shown)
VH: EVQLLESGGALVQPGGSLRLSCAASGFTFTSYAMHWVRQAPGKGLEWVSSIRGSGGGTYSADSVKGRFTISRDNSRDTLYLQMNSVRAEDTAVYYCARSHDYGAFDFFDYWGQGTLVTVSS
VL: DIQMTQSPSSLSASVGDRVTITCRASQGIRTDLGWYQQKPGKAPKRLIYAASSLQSGVPSRFSGSGSGTEFTLTISSLRPEDFATFYCLQYNSYPLTFGGGTKVEIKR
notes: hIgG1/kappa

t1/2 [1]: 232 min | t1/2 [2]: 12 min
B5: 12848B anti-hTfR monoclonal antibody (bivalent IgG1) (antibody, V domains shown)
VH: EVQLVESGGGLVQPGRSLTLSCAASGFTFDNFGMHWVRQGPGKGLEWVSGLTWNSGVIGYADSVKGRFTISRDNAKNSLYLQMNSLRPEDTALYYCAKDIRNYGPFDYWGQGTLVTVSS
VL: not shown
notes: hIgG1/kappa; also called H1H12848B; REGN17515

t1/2 [1]: 108 min | t1/2 [2]: 25.5 min
B6: 12808B anti-hTfR monoclonal antibody (bivalent IgG1) (antibody, V domains shown)
VH: QLQLQESGPGLVKPSETLSLTCTVSGESISSNTYYWGWIRQPPGKGLEWIGSIDYSGTTNYNPSLKSRVTISVDTSRNHFSLRLRSVTAADTAVYYCAREWGNYGYYYGMDVWGQGTTVTVSS
VL: DIQMTQSPSSLSASVGDRVTINCRASQGIRNDLGWYQQKPGKAPKRLIYAASSLQSGVPLRFSGSGSGTEFTLTINNLQPEDFATYYCLSHNSYPWTFGQGTKVEIKR
notes: hIgG1/kappa

t1/2 [1]: 68.8 min | t1/2 [2]: 9.8 min
B7: 12843B anti-hTfR monoclonal antibody (bivalent IgG1) (antibody, V domains shown)
VH: EVQLVESGGGLVQPGGSLRLSCAASGFTFNIFEMNWVRQAPGKGLEWISYISSRGTTTYYADSVRGRFTISRDNAKNSLYLQMNSLRAEDTAVYYCARDYEATIPFDFWGQGTLVTVSS
VL: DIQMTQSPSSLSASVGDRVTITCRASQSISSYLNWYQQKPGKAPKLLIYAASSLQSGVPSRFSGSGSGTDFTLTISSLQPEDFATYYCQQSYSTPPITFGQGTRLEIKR
notes: hIgG1/kappa; also called H1H12843B; REGN17512

t1/2 [1]: 395 min | t1/2 [2]: 21.8 min
B8: 12802B anti-hTfR monoclonal antibody (bivalent IgG1) (antibody, V domains shown)
VH: QVQLVESGGGLVKPGGSLRLSCAASGFTFSDYFMSWIRQAPGKGLEWVSYISSTGSTINYADSVKGRFTISRDNVKNSLYLQMTSLRVEDTAVYYCTRDNWNYEYWGQGTLVTVSS
VL: EIVMTQSPATLSVSPGERATLSCRASQSVSINLAWYQQKPGQAPRLLIFVASTRATGIPARFSGSGSGTEFTLTISSLQSEDFATYYCQQYDIWPYTFGQGTKLEIKR
notes: hIgG1/kappa
